Our source for the Kd values is article PMC9940316.

The target in experiment [1] is rabbit polyclonal anti-BSA antibody (IgG) (rabbit) (UniProt P01870). As to the kind of experiment: SPR; pH 4.6.
Experiment [2] has the same target. Nature of the experiment: SPR; pH 7.5.
The target is the same in experiment [3]. As to the kind of experiment: SPR; pH 4.0. On the technique in general: Surface plasmon resonance follows binding to a sensor surface in real time, without labels.
Experiment [4] deals with human plasma IgG4 (human). Nature of the experiment: SPR; BIAcore 3000; human IgG subclass immobilised on CM5 chip by amine coupling (200-1000 RU); FcγRI mutants as analytes; steady-state fitting.
In experiment [5] the target is human IgG2 (human). The description is as above.
For experiment [6], the target named is human plasma IgG3 (human). The experiment is described as above.
Experiment [7] addresses VRC01 D265R mutant antibody (human). As to the kind of experiment: BLI; Octet R8; VRC01 or D265R mutant captured on Protein A biosensors (~5 nm); serial dilutions of FcγRI (Zymogenetics); 10mM Hepes pH7.5, 0.15M NaCl; 1:1 binding model. For orientation: BLI is a label-free optical method that tracks binding on a fibre tip over time.
The target in experiment [8] is VRC01, human IgG1 isotype anti-gp120 antibody, wildtype (human). The experiment is described as above.
Experiment [9] has as its target human plasma IgG4 (human). As to the kind of experiment: SPR; BIAcore 3000; human IgG subclass immobilised on CM5 chip by amine coupling (200-1000 RU); wild type FcγRI as analyte; kinetic curve fitting.
Experiment [10] concerns the target human IgG2 (human). The description is as above.
The target in experiment [11] is human plasma IgG3 (human). Described as above.

Chain of rabbit polyclonal anti-BSA antibody (IgG) (rabbit) (P01870 whole entry, looked up): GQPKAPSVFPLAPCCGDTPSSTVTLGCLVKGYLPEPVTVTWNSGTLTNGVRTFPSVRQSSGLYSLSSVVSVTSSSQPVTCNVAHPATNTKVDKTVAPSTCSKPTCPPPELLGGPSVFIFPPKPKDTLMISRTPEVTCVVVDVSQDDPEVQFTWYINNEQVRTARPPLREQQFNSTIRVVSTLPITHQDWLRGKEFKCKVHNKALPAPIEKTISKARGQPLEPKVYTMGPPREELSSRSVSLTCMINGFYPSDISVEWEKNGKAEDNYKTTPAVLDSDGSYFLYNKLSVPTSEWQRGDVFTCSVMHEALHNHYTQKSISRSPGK
Chain of recombinant human FcγRI, wildtype (P12314 21-282): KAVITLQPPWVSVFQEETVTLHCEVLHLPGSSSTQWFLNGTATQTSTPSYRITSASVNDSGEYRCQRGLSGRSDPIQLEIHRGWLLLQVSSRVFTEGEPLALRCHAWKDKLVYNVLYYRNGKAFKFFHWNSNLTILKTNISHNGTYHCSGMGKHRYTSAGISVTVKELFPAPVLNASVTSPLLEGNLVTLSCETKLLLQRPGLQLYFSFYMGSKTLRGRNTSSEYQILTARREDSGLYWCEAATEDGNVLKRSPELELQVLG
Chain of VRC01, human IgG1 isotype anti-gp120 antibody, wildtype (human) (light, as listed by the source, chain 2 of 2, other chains not shown): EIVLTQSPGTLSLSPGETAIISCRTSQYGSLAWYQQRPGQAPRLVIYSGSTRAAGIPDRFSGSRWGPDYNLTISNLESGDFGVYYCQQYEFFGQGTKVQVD
Chain of VRC01 D265R mutant antibody (human) (light, as listed by the source, chain 2 of 2, other chains not shown): as above

Take BSA: the Kd – broadly, a measure of binding affinity in units of concentration – in [1] worked out at 10.1 nM; in [2], 7.8 nM; in experiment [3] it was 1.8 nM.

For “FcγRI H174R variant (bovine FG-loop variant of human FcγRI) (from UniProt P12314 21-282) (receptor)”, the results for the Kd (in experiment [4]; with human IgG2 (human) [5]; in experiment [6]) were 109 nM, 32.8 nM and 24.2 nM, respectively.

For “recombinant human FcγRI, wildtype (from UniProt P12314 21-282) (receptor)”, the Kd in [7] was 1160 nM; in [8] it was 12 nM; in experiment [9] it was 65.7 nM; with human IgG2 (human) [10], 41 nM; in [11], 28.6 nM.
